Where two headings read alike, the source gives them in different places.
How the values were obtained:
[1] = target: histone H3 (Homo sapiens) (UniProt P68431); conditions: cited from earlier work
[2] = target: histone H4 (Homo sapiens) (UniProt P62805); conditions: cited from earlier work
[3] = target: histone H3 (Homo sapiens) (UniProt P68431); conditions: cited from earlier work; remark: listed apart in the source
[4] = target: histone H3 from calf thymus histones (UniProt P68432); experiment: GST pull-down, immunoblot with α-H3, band level printed under lane; conditions: calf thymus histones (CTH); CTH input 5%

## 53BP1 tandem TUDOR domain (from UniProt Q12888)
[1]
  Kd: 2000 µM
[2]
  Kd: 20 µM

## EED WD40 (from UniProt O75530)
[3]
  Kd: > 400 µM

## GST-ING3PHD (PHD domain of the H3K4me3 reader ING3) W385A
[4]
  response: 0.3

Reference: article PMC9993015
